The target of test [1] is SIRPα-αMSLN^M4F5 local inhibitory checkpoint monoclonal antibody (LicMAb). In words: flow cytometry on cells; binding to SUIT-2-MSLN cells in the presence of saturating concentrations of soluble MSLN (Supplementary Figure S7a).
For test [2] the target is unchanged. In words: flow cytometry on cells; binding to SUIT-2-MSLN cells in the presence of 2.5 µM rhMSLN as competitor (Supplementary Figure S6b, c). (In general: In flow cytometry, cells or beads pass a laser one at a time.)

Turning to “recombinant human MSLN (rhMSLN) (from UniProt Q13421 37-598) (natural protein)”, the percent reduction of the binding of m2 to SUIT-2-MSLN cells by saturating soluble MSLN in test [1] turned out to be 53%. Further, the percent reduction of the binding of m2 to SUIT-2-MSLN cells by 2.5 µM rhMSLN in test [2] was found to be 40%.

The record behind these values is article PMC12098241.
